Assay results published in US20140289906A1, “Compositions Having Dicamba Decarboxylase Activity and Methods of Use” (priority 2013, published 2014).

Test: 14C assay: 14CO2 capture from [14C]-carboxyl-labeled dicamba with IPTG-induced recombinant E. coli cells
Conditions: for Dicamba Decarboxylase Activity: IPTG-induced recombinant E. coli cells, 14CO2 from [14C]-carboxyl-labeled dicamba; for decarboxylation activity of dicamba: among the 108 sequences tested, recombinant E. coli cell assay; for Enzymatic Detection level: dicamba decarboxylation activity

B1: 31 (protein, listed as Agrobacterium sp.)
chain: MAQGKVALEEHFAIPETLQDSAGFVPGDYWKELQHRLLDIQDTRLKLMDAHGIETMILSLNAPAVQAIPDKTKAIEIARRANDVLAEECAKRPDRFLAFAALPLQDPDAATEELQRCVNDLGFVGALVNGFSQEGDGQTPLYYDLPQYRPFWGEVEKLDVPFYLHPRNPLPQDSRIYDGHPWLLGPTWAFAQETAVHALRLMASGLFDEHPRLNIILGHMGEGLPYMMWRIDHRNAWVKLPPRYPAKRRFMDYFNENFHITTSGNFRTQTLIDAILEIGADRILFSTDWPFENIDHASDWFNATSIAEADRVKIGRTNARRLFKLDGA
With B1 the “Dicamba Decarboxylase Activity” value was “High”, the “decarboxylation activity of dicamba” value was “showed decarboxylation activity of dicamba” and the “Enzymatic Detection level” value was “High”.

B2: 36 (protein, listed as Agrobacterium sp.)
chain: MAQGKVALEEHFAIPETLQDSAGFVPGDYWTELQHRLLDIQDTRLKLMDAHGIETMILSLNAPAVQAIPDKTKAIEIARRANDALAEECAKRPNRFLAFAALPLQDPDAATQELQRCVNDLGFVGALVNGFSQEGDGQIPLYYDLPQYRPFWGEVEKLDVPFYLHPRNPLPQDSRIYDGHPWLLGPTWAFAQETAVHALRLMASGLFDEHPRLNIILGHMGEGLPYMMWRIDHRNAWVKLPPRYPAKRRFVDYFNENFHITTSGNFRTQTLIDAILEIGADRILFSTDWPFENIDHASDWFHATSIAEADRVKIGRTNARRLFKLDGR
With B2 the “Dicamba Decarboxylase Activity” value was “High”, the “decarboxylation activity of dicamba” value was “showed decarboxylation activity of dicamba” and the “Enzymatic Detection level” value was “High”.

B3: 46 (protein, listed as Rhodococcus opacus)
chain: MARIITLEEHYLDPAIAAASAPLARELSPDFAAAYDPASGLSYTPSAQVLQDLGQRRIADMDTHGISMQVLSCLTTQQVPADVAPDLVRAANDTAAAAVRAHPDRFAAFAALPTTAPDAAATELARCIDDLGFVGTMINGRTDGEFLDAPRFDPILATAAARNVPIYLHPAVPPRATSDSNYAGLAPLVTARLQTSAWGWHQETAVHFLHLVLSGVLDRYPNLQFILGHWGEMIPFYLDRLDEALPQAVTNLDRTISDYVRENVYITPSGMFNQAQLQYCVETLGVDRILYSVDYPFIGNDGAVSFLDEANLPDEAKHQIAHQNTEKLLGL
In the case of B3, the “Dicamba Decarboxylase Activity” value is reported as “High”, the “decarboxylation activity of dicamba” value is reported as “showed decarboxylation activity of dicamba” and the “Enzymatic Detection level” value is reported as “High”.

B4: 35 (protein)
chain: MAFKASRKIALEEHFAIDATVQDSAGFVPPSYWAELKRRLLDIHDRRIDEMDRNGVELMVLSLNAPTVQAVPNIKDAYDLSRRANDFLAEQIVKRPERFKGFAALPMQSPDLAARELERCVKELNFVGALVNGFSQVEESGTALYYDLPQYRQFWSVVQALDVPFYLHPRNPLPAHAPIYEGHPWLLGPTWAFGQETAVHALRLMGSGLFDEYPELKIILGHMGEGLPYSMWRIDNRNAWVETQPNYPAKKRIAEYFHKNFWLTTSGNFRTQTLIDAMLEIGSDRILFSTDWPFENVDHAAQWFDDAAISENDRIKIARTNAARLFKLEP
modifications: Burkholderia sp
With B4 the “Dicamba Decarboxylase Activity” value was “High”, the “decarboxylation activity of dicamba” value was “showed decarboxylation activity of dicamba” and the “Enzymatic Detection level” value was “High”.

B5: 47 (protein, listed as Serratia odorifera)
chain: MAKIICLEEHTLDKALVMASMPAALAQAPFLSDWGKTITDGNLPDRSRPQIEKNDLINVKGADIGRGRLDDMDEAGITMQVLSVGGFPHLISAAEGVDLNRAANDRLANAVNAHPDRFAAFATLPWAQPDAAEKELERAVKELGFKGALLNGRPSIHFLDHPDYDGLLARFNALGVPLYLHPGLPVRSVQQAYYSGFSDEVTARLSMFGWGWHHEAGIHLLRLILSGAFDKYPNLQVISGHWGEMLPFWLQRLDDSLPQAATGLRRTITQTFREQVYVTPSGMLTLPHFQFIYALLGAERILFSVDYPYQTLDGVKAFIQSLPVPEEAKEAIAFRNAERLFGLTS
In the case of B5, the “Dicamba Decarboxylase Activity” value is reported as “High”, the “decarboxylation activity of dicamba” value is reported as “showed decarboxylation activity of dicamba” and the “Enzymatic Detection level” value is reported as “High”.

B6: 49 (protein, listed as Streptomyces sp.)
chain: MAKIIALEEHFSDPAVAKAGAARARALSPGFAASYSPASGLPYSPSPEVLENLAEKRLADMDAGGITMQVLSGLGAQTVPADVAPALVAGSNDKAAAAVRAHPDRFAAFAALPTATPEAAVAELDRSVNELGFVGTLIMGRTEGEFLDAPRFEPILARAAALKVPVFLHPGVPPREITDSNYAAGLPTGIGTRLQTAAWGWHQETAVHFLHLVHSGVLDRYPDLQFILGHWGEMIPFYLDRVDEALPQRATGLDRSFHEYFRENVYLAPSGMWSQAQLRFCLETVPLERIVFAVDYPFIGNEGAVPFLEKAELPQADKRKIAHENAERLLGL
In the case of B6, the “Dicamba Decarboxylase Activity” value is reported as “High”, the “decarboxylation activity of dicamba” value is reported as “showed decarboxylation activity of dicamba” and the “Enzymatic Detection level” value is reported as “High”.

B7: 48 (protein, listed as Amycolatopsis mediterranei)
chain: MASMKLYGLEEHFVTADVIEAWRRRDPGLAEPMMKWAVASDITPALLDVDGGRIAAMDDAGIDTTVLSLTTPGLQNLDAAEAVALQAPTNDLIAAAVRRHPGRFQGFATLATSAPAAAADELRRAVTELGLNGALVNANSRGRALDAPGFWDIYEAAEDLRAPVYLHPGVPVPAVTEAYYRGFGEPVNSMLATGAFGWHYDAGLTILRMIVAGVFDRFPGLQVILGHWGEVVLFYLDRVAAMDKLTALRRPIAEYFRSNIFITPGGISSHKYLRWSLETVGVERIMYASDYPFNTERAGSARRFLDTAPVDEAGRERIAYRNWEELIAGIRR
For B7, the “Dicamba Decarboxylase Activity” value was “High”, the “decarboxylation activity of dicamba” value was “showed decarboxylation activity of dicamba” and the “Enzymatic Detection level” value was “High”.

B8: 44 (protein, listed as Mycobacterium avium)
chain: MARIITVEEHFQHPEVSARVAELTGPAVEGLAEFGNAFSLDPDSTARLGGNRLAHMDQVGIDVQVVSHGNGSPGTLQHPEAVELCRRVNNDLAAQIAENPDRFRGFATLPLYDPAAAAEELRRCVGDLGFVGALIAGSYDGLFLDDERFDPILTAAEAVDFPIYVHPGLPEAPVSQRYYAGSWPASVHMMFSGPAFGWHAEAGIHIVRLILSGALDRHPTLKLLSGHWGELAAFYLERLDETLGLLPTGLERAPSDYYRQQVWITPSGMYNQNQLNFMTAELGAQRIIYSEDFPYVVRDNVSTFLEQAGLSEADTHAIAHTNAEALLRI
With B8 the “Dicamba Decarboxylase Activity” value was “High”, the “decarboxylation activity of dicamba” value was “showed decarboxylation activity of dicamba” and the “Enzymatic Detection level” value was “High”.

B9: 34 (protein)
chain: MAQGKIGLEEHFAIPETLNDSAGFVPGDYWKELSRRLLDIQDDRLRQMDENGMEMMLLSLNAPAVQAVPDRKQACELAVRANDFLAEQVSRRPDRFQALAALPLQDPDFATVELTRCVNELGMRGALVNGFSQIDTPDNVVYYDAPQYASFWAAVEKLDVPFYLHPRNPIASWAQIYDGHPWLLGPTWAFGQETAVHALRLMASGLFDRHPALQIVLGHLGEGLPYSLWRIDNRNAWVKAPKTHPAKKTFRHYFQQNFHLTTSGNFHNQTLIDAILEIGADRILFSTDWPFENIDHAAKWFDSASISEADRTKIGRTNAMKLFKLVA
modifications: Cupriavidus necator
With B9 the “Dicamba Decarboxylase Activity” value was “High”, the “decarboxylation activity of dicamba” value was “showed decarboxylation activity of dicamba” and the “Enzymatic Detection level” value was “High”.

B10: 30 (protein)
chain: MARGKIALEEHVSTPENNRLWDSTGEANRNGSEYMQDVERRLLDRSIQLEEMAQRNIDHVILSLTSPGAQSILDKAKAVSFARDTNDFIVDNYVKPNPDKFSAFATLALQNPEAAAEELERAVKKLGMKGALINGYTNVKDSEHGLYLDDESMLVFWDKVNELNVPVYLHPREPLEGPARGIYTGYESLIGSAWGFAQETAVHAIRLMMSGLFDRYPNLNLVLGHLGEGLVHMLPRTQHRLYRQRFGCGLGKAEKPLMHYLQNNFIVTTSGHFNTHSLNNAIEVMGADRVMFSVDYPYEDIHQACDWFDPLEMDEGLKEKIAWGNASRVFNIK
modifications: Enterobacter aerogenes
For B10, the “Dicamba Decarboxylase Activity” value was “High”, the “decarboxylation activity of dicamba” value was “showed decarboxylation activity of dicamba” and the “Enzymatic Detection level” value was “High”.

B11: 28 (protein, listed as Sphingomonas paucimobilis)
chain: MARLIATEEAVTFQPVVDALRAHSRTDDASLDMILVRDVYGDEPARPAMIGRLSDVTGERLAEMDSNGVDMHLLSLTAPGVQMFDAETGTRLARIANDLMAQTVAANPTRFAGLGTFAPQDPASAAREIERVATQLRLNGLVINSHTNDLYYDDPFFHPVFEAIEASGLALYIHPRAPSKQIDRAFRDYGMNSAIWGYGIETSTNAVRMILSGLFDRFPRLKIVLGHMGEAIPFWLWRLDYMHGNATTFGGAPKLKLKPSEYFRRNFAITTSGVESHAALRYSIEVLGPENVMWAIDYPYQPMAPAVQFIRTAPIPEDVKAMVAGGNAARIFRIT
With B11 the “Dicamba Decarboxylase Activity” value was “High”, the “decarboxylation activity of dicamba” value was “showed decarboxylation activity of dicamba” and the “Enzymatic Detection level” value was “High”.

B12: 33 (protein, listed as Rhizobium leguminosarum)
chain: MAQGKIALEEHFAIPETLQDSAGFVPGDYWKELSARLLDIQEKRLRLMDAHGIEKMILSLNAPAVQAIPDRAKALEISRRANDFLAEQCVKNPNRFLGFAALPLQDPDAATQELQRCVTTMGFVGALVNGFSQEGDGTTPLYYDLPQYRSFWAEVEKLNVPFYLHPRNPLPQDSRIYAGHSWLMGPTWAFAQETAVHALRLMGSGLFDEHPALRIIVGHMGEGLPYMMWRIDNRNAWVKVEKSYPAKRPIADYFNENFYITTSGNFRTQSLIDAMLEIGADRILFSADWPFENIDHAANWFDSATISEADRLKIGRTNAVSLFKLDR
With B12 the “Dicamba Decarboxylase Activity” value was “High”, the “decarboxylation activity of dicamba” value was “showed decarboxylation activity of dicamba” and the “Enzymatic Detection level” value was “High”.

B13: 43 (protein, listed as Rhizobium leguminosarum)
chain: MAQGKIALEEHFAIPETLQDSAGFVPGDYWTELSARLLDIQDKRLRLMDTHGIEKMILSLNAPAVQAIPDKAKAVEISRRANDFLAEQCVKNPNRFLGFAALPLQDPDAATQELQRCVTTMGFVGALVNGFSQEGDGTTPLYYDLPQYRPFWAEVEKLDVPFYLHPRNPLPQDSRIYAGHSWLMGPTWAFAQETAVHALRLMGSGLFDEHPALRIIVGHMGEGLPYMMWRIDNRNAWVKVEKSYPAKRPIADYFNENFYITTSGNFRTQSLIDAMLEIGADRILFSADWPFENVDHAANWFDSATISEADRLKIGRTNAVSLFKLDR
In the case of B13, the “Dicamba Decarboxylase Activity” value is reported as “High”, the “decarboxylation activity of dicamba” value is reported as “showed decarboxylation activity of dicamba” and the “Enzymatic Detection level” value is reported as “High”.
